From article PMC10917059, “RhoU forms homo-oligomers to regulate cellular responses” (Journal of Cell Science, 2024)

Target: the molecule itself
Test: cross-linking; lysates of transfected COS7 cells in 20 mM HEPES pH 7.2, 1% Triton X-100, incubated with DSS (0.25 mM in the methods; increasing concentrations in the results) or DMSO for 30 min at 4°C; anti-Myc blot

B1: Myc–RhoU (natural protein)
chain: not shown
notes: vector a gift from Pontus Aspenström; also called pRK5-myc-RhoU; full-length RhoU; source: COS7, transfected, in lysate; not shown: Myc, N-terminal, kept
  stoichiometry N: 2
